Laboratory results taken from patent US20240263160A1 (BIOMARIN PHARMACEUTICAL, published 2024).

Biological target: IGF2 receptor (cation-independent mannose-6-phosphate receptor)
Assay: IGF2 receptor binding assay; average over the BMN001 lots used in the nonclinical studies; format and competitor not described

B1: BMN001 therapeutic fusion protein (mature human Naglu fused through a rigid linker to a furin-resistant IGF-II peptide, amino acids 8-67 of mature human IGF-II … (enzyme)
chain: DEAREAAAVRALVARLLGPGPAADFSVSVERALAAKPGLDTYSLGGGGAARVRVRGSTGVAAAAGLHRYLRDFCGCHVAWSGSQLRLPRPLPAVPGELTEATPNRYRYYQNVCTQSYSFVWWDWARWEREIDWMALNGINLALAWSGQEAIWQRVYLALGLTQAEINEFFTGPAFLAWGRMGNLHTWDGPLPPSWHIKQLYLQHRVLDQMRSFGMTPVLPAFAGHVPEAVTRVFPQVNVTKMGSWGHFNCSYSCSFLLAPEDPIFPIIGSLFLRELIKEFGTDHIYGADTFNEMQPPSSEPSYLAAATTAVYEAMTAVDTEAVWLLQGWLFQHQPQFWGPAQIRAVLGAVPRGRLLVLDLFAESQPVYTRTASFQGQPFIWCMLHNFGGNHGLFGALEAVNGGPEAARLFPNSTMVGTGMAPEGISQNEVVYSLMAELGWRKDPVPDLAAWVTSFAARRYGVSHPDAGAAWRLLLRSVYNCSGEACRGHNRSPLVRRPSLQMNTSIWYNRSDVFEAWRLLLTSAPSLATSPAFRYDLLDLTRQAVQELVSLYYEEARSAYLSKELASLLRAGGVLAYELLPALDEVLASDSRFLLGSWLEQARAAAVSEAEADFYEQNSRYQLTLWGPEGNILDYANKQLAGLVANYYTPRWRLFLEALVDSVAQGIPFQQHQFDKNVFQLEQAFVLSKQRYPSQPRGDTVDLAKKIFLKYYPRWVAGSWGAPGGGSPAPAPTPAPAPTPAPAGGGPSGAPLCGGELVDTLQFVCGDRGFYFSRPASRVSARSRGIVEECCFRSCDLALLETYCATPAKSE
notes: also called Naglu/IGF-II fusion protein
Question: For B1, which IC50 is on record?
Answer: 0.28 nM
